Assay results published in patent US20250051449A1 (SURFACE ONCOLOGY, published 2025).
Substitutions are numbered along the chain they refer to. Values belong to the binder of their own block, whether it stands above or below them.

Tests used:
[1] = molecular target: T1, mouse CD112R overexpressed on 293T cells (mouse); assay: flow cytometry, 293T cells overexpressing mouse CD112R
T1 construct: whole, on cells; also called 293T.mCD112R; 293T-mouse CD112R
Method: The ability of anti-CD112R antibodies to bind to mouse CD112R was evaluated on cells overexpressing mouse CD112R. 0.8×10⁵ 293T cells (ATCC CRL-3216) that were engineered to overexpress mouse CD112R (293T.mCD112R) were added to each well of a 96-well V bottom plate and stained with either anti-CD112R antibodies or an IgG1 isotype control at a starting concentration of 10 μg/mL, with 3-fold serial dilutions for 30 minutes at 4° C. Cells were washed twice with PBS+2% FCS and resuspended with Alexa Fluor® 647 anti-human IgG Fc antibody (Biolegend, Cat #409320) diluted 1:100 in PBS+2% FCS and incubated at 4° C. for 20 minutes. Cells were subsequently washed twice and resuspended in PBS+2% FCS. Cellular data was acquired using a LSRFortessa X-20 (BD Biosciences) and analyzed with FlowJo software (Tree Star).
Results are depicted in FIG. 17 and Table 11. Quantitation of antibody binding to 293T.mCD112R cells was assessed by the geometric mean fluorescent intensity (gMFI) of the Alexa Fluor® 647 signal.

[2] = molecular target: T2, CD112R-hIgG4 fusion protein (human, UniProt Q6DKI7 41-171, limits assumed); assay: blocking ELISA: coated CD112R-hIgG4, antibody, then biotinylated CD112 Fc
T2 construct: also called human CD112R-hIgG4; not shown: human IgG4 portion (hIgG4)
T2 sequence (looked up): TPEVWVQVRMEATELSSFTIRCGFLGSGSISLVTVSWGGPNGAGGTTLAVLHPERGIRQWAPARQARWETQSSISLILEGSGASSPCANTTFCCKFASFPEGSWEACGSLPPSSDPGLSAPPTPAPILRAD
Method: The ability of anti-CD112R antibodies to block human CD112R was also evaluated by ELISA. Briefly, 96 well Nunc Maxisorp plates were coated with 1 μg/mL of a CD112R-hIgG4 fusion protein in PBS overnight at 4° C. […] After blocking, plates were washed 6× with PBST. Next, 100 μl of anti-CD112R antibodies in PBS+1% BSA was added at a final starting concentration of 10 μg/mL, with 4-fold serial dilutions. Plates were incubated at room temperature for 1.5 hours. Next plates were washed 6× with PBST and then incubated with 1 μg/ml CD112 Fc protein (R&D Systems, Cat #9317-N2-050) that was biotinylated with a sulfo-NHS biotinylation kit (Thermo Fisher, Cat #21925) in 100 μl of PBS+1% BSA for 1 hour at room temperature. Plates were then washed 6× with PBST and subsequently incubated with streptavidin-HRP (Biolegend, Cat #405210) diluted in PBS+1% BSA according to the manufacturer recommendation for 1 hour at room temperature. Following this incubation, plates were then washed 6× with PBST and developed with TMB substrate (Life Technologies, Cat #002023). The reaction was stopped with an equal volume of stop solution (Life Technologies, Cat #SS04). Absorbance at 450 nm (O.D. 450) was measured on a SpectraMax plate reader.
Results are depicted in FIG. 2B and Table 2. […] Percent inhibition was calculated as [100−((test sample O.D. 450/Max 0.D. 450)*100%)] Max O.D. 450 was defined as absorbance at 450 nm in the absence of antibody.

[3] = molecular target: T3, human CD112R expressed on Jurkat cells (human, UniProt Q6DKI7 1-326); assay: flow cytometry, Jurkat cells over-expressing human CD112R, 0.63 ug/mL antibody
T3 construct: whole, on cells; Used for both Jurkat-CD112R OE cells and wild type Jurkat cells; which cells is said under assay; also called PVRIG; Jurkat-CD112R OE
T3 sequence (looked up): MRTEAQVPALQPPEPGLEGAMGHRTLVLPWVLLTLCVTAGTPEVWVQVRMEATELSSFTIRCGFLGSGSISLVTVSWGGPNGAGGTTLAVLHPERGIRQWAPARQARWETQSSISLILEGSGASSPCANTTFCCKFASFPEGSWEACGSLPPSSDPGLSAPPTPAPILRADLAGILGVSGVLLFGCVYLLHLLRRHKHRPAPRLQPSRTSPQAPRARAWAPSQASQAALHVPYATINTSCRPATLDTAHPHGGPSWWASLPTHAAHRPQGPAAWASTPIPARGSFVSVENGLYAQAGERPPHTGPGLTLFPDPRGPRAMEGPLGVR
Method: The ability of anti-CD112R antibodies to bind to CD112R expressed on cells was evaluated. 1×10⁵ Jurkat cells (acute T cell leukemia cell line, ATCC #TIB-152) that were either wild type or engineered to over-express human CD112R (Jurkat-CD112R OE) were added to each well of a 96-well V bottom plate and stained with either anti-CD112R antibodies or an IgG1 isotype control (0.63 μg/mL) for 1 hour at 4° C. Cells were washed twice with PBS+2% FCS and resuspended with Alexa Fluor® 647 anti-human IgG Fc antibody (Biolegend, Cat #409320) diluted 1:100 in PBS+2% FCS and incubated at 4° C. for 30 minutes. Cells were subsequently washed twice and resuspended in PBS+2% FCS. Cellular data was acquired using a LSRFortessa X-20 (BD Biosciences) and analyzed with FlowJo software (Tree Star).
Results are depicted in FIG. 1. Quantitation of antibody binding to Jurkat-CD112R OE cells was assessed by the geometric mean fluorescent intensity (gMFI) of the Alexa Fluor® 647 signal.

[4] = molecular target: T3, human CD112R expressed on Jurkat cells; assay: flow cytometry competition on Jurkat-CD112R OE cells; competitor biotinylated his-tagged human CD112
Method: The ability of anti-CD112R antibodies to block CD112 binding to CD112R expressing cells was evaluated. 1×10⁵ Jurkat cells (acute T cell leukemia cell line, ATCC #TIB-152) that were engineered to over-express human CD112R (Jurkat-CD112R OE) were added to each well of a 96-well V bottom plate and stained with serial dilutions of either anti-CD112R antibodies or an IgG1 isotype control (highest concentration, 10 μg/mL) for 1 hour at 4° C. Cells were washed twice with PBS+2% FCS and resuspended with biotinylated his-tagged human CD112 (3 μg/mL) (BPS Bioscience, #71234) and PE Streptavidin (5 μg/mL) (Biolegend, #405204) in PBS+2% FCS and incubated at 2 hours at 4° C. Cells were subsequently washed twice and resuspended in PBS+2% FCS. Cellular data was acquired using a LSRFortessa X-20 (BD Biosciences) and analyzed with FlowJo software (Tree Star).
Results are depicted in FIG. 2A and Table 2. […] Percent inhibition was calculated as [100−((test sample MFI/Max MFI)*100%)]

gMFI (fold increase over isotype) [1]: 74.8 fold increase over isotype
CD112 blocking max inhibition ELISA (%) [2]: 97.6%
gMFI (fold increase over isotype) [3]: 23.8 fold increase over isotype
CD112 blocking max inhibition (%) [4]: 95.5%
IC50 [4]: 0.0162 µg/mL
B1: Antibody 46 (antibody, V domains shown)
VH: EVQLVESGGGLVQPGRSLRLSCTASGFTFGDYAMSWFRQAPGKGLEWVGFIGSKAYGGTTEYTASVKGRFTISRDGSKSIAYLQMNSLKTEDTAVYYCARGPRRYTYGMDVWGQGTTVTVSS
VL: DIQMTQSPSSLSASVGDRVTITCRASQSISSYLNWYQQKPGKAPKLLIYAASSLQSGVPSRFSGSGSGTDFTLTISSLQPEDFATYYCQQSSTPLTFGGGTKVEIK
notes: in the mouse tumor studies it was used as mouse IgG2a; also called antibody clone number 46; clone 46

gMFI (fold increase over isotype) [1]: 14.9 fold increase over isotype
CD112 blocking max inhibition ELISA (%) [2]: 75.1%
gMFI (fold increase over isotype) [3]: 27.9 fold increase over isotype
CD112 blocking max inhibition (%) [4]: 96%
IC50 [4]: 0.0236 µg/mL
B2: Antibody 32 (antibody, V domains shown)
VH: QVQLVQSGAEVKKPGSSVKVSCKASGGTFSSYAISWVRQAPGQGLEWMGGIIPISGTANYAQKFQGRVTITADESTSTAYMELSSLRSEDTAVYYCARDTGRGYTRHFWFDPWGQGTLVTVSS
VL: B1 VL with S92D, T93I, P94L, L95Y
notes: Purified as IgG; compared with an IgG1 isotype control and detected with anti-human IgG Fc; also called antibody clone number 32; parent clone 32

gMFI (fold increase over isotype) [1]: 72.2 fold increase over isotype
CD112 blocking max inhibition ELISA (%) [2]: 80%
gMFI (fold increase over isotype) [3]: 33.8 fold increase over isotype
CD112 blocking max inhibition (%) [4]: 96.9%
IC50 [4]: 0.0132 µg/mL
B3: Antibody 34 (antibody, V domains shown)
VH: B2 VH with Y32A, I52F, T57H
VL: B1 VL with S92D, T93I, P94L, L95Y
notes: Purified as IgG; compared with an IgG1 isotype control and detected with anti-human IgG Fc; also called antibody clone number 34; clone 34

gMFI (fold increase over isotype) [1]: 73.3 fold increase over isotype
CD112 blocking max inhibition ELISA (%) [2]: 78.8%
gMFI (fold increase over isotype) [3]: 34.2 fold increase over isotype
CD112 blocking max inhibition (%) [4]: 97.4%
IC50 [4]: 0.0219 µg/mL
B4: Antibody 33 (antibody, V domains shown)
VH: B2 VH with S30G, S31N, S55P, T57I
VL: B1 VL with S92D, T93I, P94L, L95Y
notes: Purified as IgG; compared with an IgG1 isotype control and detected with anti-human IgG Fc; also called antibody clone number 33; clone 33

gMFI (fold increase over isotype) [1]: 79.4 fold increase over isotype
CD112 blocking max inhibition ELISA (%) [2]: 97.3%
gMFI (fold increase over isotype) [3]: 37.3 fold increase over isotype
CD112 blocking max inhibition (%) [4]: 96.3%
IC50 [4]: 0.0028 µg/mL
B5: Antibody 58 (antibody, V domains shown)
VH: B1 VH with A55F, T59E
VL: B1 VL
notes: Purified as IgG; compared with an IgG1 isotype control and detected with anti-human IgG Fc; also called antibody clone number 58; clone 58

gMFI (fold increase over isotype) [1]: 55.6 fold increase over isotype
CD112 blocking max inhibition ELISA (%) [2]: 81.7%
gMFI (fold increase over isotype) [3]: 32.1 fold increase over isotype
CD112 blocking max inhibition (%) [4]: 97.4%
IC50 [4]: 0.0162 µg/mL
B6: Antibody 35 (antibody, V domains shown)
VH: B2 VH with Y32A, G50N, S55V, T57I
VL: B1 VL with S92D, T93I, P94L, L95Y
notes: Purified as IgG; compared with an IgG1 isotype control and detected with anti-human IgG Fc; also called antibody clone number 35; clone 35

gMFI (fold increase over isotype) [1]: 76.3 fold increase over isotype
CD112 blocking max inhibition ELISA (%) [2]: 86.2%
gMFI (fold increase over isotype) [3]: 31 fold increase over isotype
CD112 blocking max inhibition (%) [4]: 97.5%
IC50 [4]: 0.0244 µg/mL
B7: Antibody 36 (antibody, V domains shown)
VH: B2 VH with S30A, S31T, I52F, I54L
VL: B1 VL with S92D, T93I, P94L, L95Y
notes: Purified as IgG; compared with an IgG1 isotype control and detected with anti-human IgG Fc; also called antibody clone number 36; clone 36
